In the supplement of paper PMC10567573:

B1: KIAA0774 (parent)
chain: FEDEVKRLGWQQQAELQELEERLQ

Variants of: B1
Test: protein stability index of a GFP-peptide fusion (GPS, HEK-293T) (PSI 1-6); higher = more stable
Details: c terminus: a fixed tail appended
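Further: lentivirally expressed fusions sorted by FACS into six bins by GFP to DsRed ratio, PSI derived from sequencing read proportions per bin multiplied by bin number.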

Point of comparison: FEDEVKRLGWQQQAELQELDERLQ [E20D], protein stability index 4.84. Against it:
- FEDEVKRLGWQQQAELQYLEERLQ [E18Y] — lower, 2.69
- FEDEVKRLGWQQQAELQEAEERLQ [L19A] — lower, 3.48
- FEDEVKRLGWQQQAELQECEERLQ [L19C] — lower, 4.43
- FEDEVKRLGWQQQAELQEDEERLQ [L19D] — higher, 5.22
- FEDEVKRLGWQQQAELQEEEERLQ [L19E] — higher, 5.22
- FEDEVKRLGWQQQAELQEFEERLQ [L19F] — lower, 4.12
- FEDEVKRLGWQQQAELQEGEERLQ [L19G] — higher, 5.4
- FEDEVKRLGWQQQAELQEHEERLQ [L19H] — lower, 4.08
- FEDEVKRLGWQQQAELQEIEERLQ [L19I] — lower, 4.27
- FEDEVKRLGWQQQAELQEKEERLQ [L19K] — lower, 3.24
- FEDEVKRLGWQQQAELQEMEERLQ [L19M] — lower, 4.42
- FEDEVKRLGWQQQAELQENEERLQ [L19N] — higher, 5.2
- FEDEVKRLGWQQQAELQEPEERLQ [L19P] — higher, 5.42
- FEDEVKRLGWQQQAELQEQEERLQ [L19Q] — lower, 4.17
- FEDEVKRLGWQQQAELQEREERLQ [L19R] — lower, 3.68
- FEDEVKRLGWQQQAELQESEERLQ [L19S] — lower, 4.39
- FEDEVKRLGWQQQAELQETEERLQ [L19T] — lower, 4.65
- FEDEVKRLGWQQQAELQEVEERLQ [L19V] — lower, 4.53
- FEDEVKRLGWQQQAELQEWEERLQ [L19W] — lower, 3.92
- FEDEVKRLGWQQQAELQEYEERLQ [L19Y] — lower, 4.14
- FEDEVKRLGWQQQAELQELAERLQ [E20A] — lower, 4.08
- FEDEVKRLGWQQQAELQELCERLQ [E20C] — lower, 4.34
- FEDEVKRLGWQQQAELQELFERLQ [E20F] — lower, 2.51
- FEDEVKRLGWQQQAELQELGERLQ [E20G] — lower, 3.05
- FEDEVKRLGWQQQAELQELHERLQ [E20H] — lower, 4.29
- FEDEVKRLGWQQQAELQELIERLQ [E20I] — lower, 3.74
- FEDEVKRLGWQQQAELQELKERLQ [E20K] — lower, 4.4
- FEDEVKRLGWQQQAELQELLERLQ [E20L] — lower, 3.38
- FEDEVKRLGWQQQAELQELMERLQ [E20M] — lower, 3.81
- FEDEVKRLGWQQQAELQELNERLQ [E20N] — lower, 4.32
- FEDEVKRLGWQQQAELQELPERLQ [E20P] — lower, 4.8
- FEDEVKRLGWQQQAELQELQERLQ [E20Q] — lower, 3.9
- FEDEVKRLGWQQQAELQELRERLQ [E20R] — lower, 3.87
- FEDEVKRLGWQQQAELQELSERLQ [E20S] — lower, 4.49
- FEDEVKRLGWQQQAELQELTERLQ [E20T] — lower, 3.53
- FEDEVKRLGWQQQAELQELVERLQ [E20V] — lower, 3.49
- FEDEVKRLGWQQQAELQELWERLQ [E20W] — lower, 3.05
- FEDEVKRLGWQQQAELQELYERLQ [E20Y] — lower, 3.71
- FEDEVKRLGWQQQAELQELEARLQ [E21A] — lower, 4.69
- FEDEVKRLGWQQQAELQELECRLQ [E21C] — lower, 4.38
- FEDEVKRLGWQQQAELQELEDRLQ [E21D] — lower, 4.27
- FEDEVKRLGWQQQAELQELEFRLQ [E21F] — lower, 4.07
- FEDEVKRLGWQQQAELQELEGRLQ [E21G] — lower, 4.76
- FEDEVKRLGWQQQAELQELEHRLQ [E21H] — lower, 4.41
- FEDEVKRLGWQQQAELQELEIRLQ [E21I] — lower, 3.79
- FEDEVKRLGWQQQAELQELEKRLQ [E21K] — lower, 4.76
